The experiment has as its target T1, recombinant 6His-Sp17 protein (UniProt Q15506 1-151).
T1 sequence: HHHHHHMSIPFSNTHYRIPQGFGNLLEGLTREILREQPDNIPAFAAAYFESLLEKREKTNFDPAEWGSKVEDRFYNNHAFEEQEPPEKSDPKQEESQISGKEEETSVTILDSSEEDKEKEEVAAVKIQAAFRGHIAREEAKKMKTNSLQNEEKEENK
The experiment can be described thus: SPR (Biacore T200), 6His-Sp17 at 6.25-300 nM. The source says:
The lines correspond, from highest to lowest, to fitted cycles for 300 nanomolar, 100 nanomolar, 50 nanomolar, 25 nanomolar, 12.5 nanomolar, and 6.25 nanomolar concentrations of 6His-Sp17.
The nucleotide sequences encoding the VH and VL regions of Example 1 were cloned into a mouse IgG2a heavy chain gene and a mouse kappa light chain gene, respectively, and expressed in CHO—S cells to produce a mouse-human chimeric antibody, which was named chAB2. Successful generation of the antibody was confirmed by SDS-PAGE and western blotting using anti-mouse heavy and light chain antibodies and recombinant Sp17 protein (FIGS. 2 & 3). The chAB2 antibody was reactive to mouse surface Sp17 protein expressed on the mouse ovarian cancer cell line ID8 (FIG. 4).
For orientation: Surface plasmon resonance follows binding to a sensor surface in real time, without labels.

B1: mouse-human chimeric anti-Sp17 IgG2a/kappa monoclonal antibody chAB2 (antibody, V domains shown)
VH: QVQLQQSGAEVKKPGSSVKVSCKASGGTFSSYAISWVRQAPGQGLEWMGRIIPILGIANYAQKFQGRVTITADKSTSTAYMELSSLRSEDTAVYYCARPSEEVVAAYGAFDIWGQGTTVTVSS
VL: EIVLTQSPLSLPVRPGEPASISCRASQSLLRSDGFNYLDWYLQKPGQSPQLLVYLGSNRASGVPDRFSGSGSGTDFTLKISRVEAEDVGVYYCMQAVQTPYIFGQGTKLEIK
notes: also called chimeric antibody; anti-Sp17 antibody chAB2
On to B1, for which the Kd (in general, the free concentration of one partner at which half of the binding sites on the other are occupied at equilibrium, for simple one-to-one binding) stood at 2.07 nM; the dissociation rate constant (koff) (as a rule, the rate constant with which the complex falls apart) is 0.00013 s⁻¹; the kon (as a rule, the rate constant with which the complex forms) was determined as 62600 M⁻¹ s⁻¹.

Source of the values: US20250011420A1 (MEDICOVESTOR, published 2025).
